{
  "source": "patent US20070224212A1",
  "about": "(Merck Sharp & Dohme, published 2007)",
  "assay_in_all_cases": "cell-based or functional assay",
  "key": {"HIV-1 gp41 (strain HXB2) [1]": {"target": "T1, HIV-1 gp41 (strain HXB2) (HIV-1 strain HXB2, UniProt P04578 512-856)"}, "HIV-1 gp41 (strain HXB2) [2]": {"target": "T1, HIV-1 gp41 (strain HXB2)", "remark": "listed apart in the source"}, "HIV-1 gp41 (strain HXB2) [3]": {"target": "T1, HIV-1 gp41 (strain HXB2)", "remark": "listed apart in the source"}, "HIV-1 gp41 (strain BaL)": {"target": "HIV-1 gp41 (strain BaL) (HIV-1 strain BaL)"}, "HIV-1 gp41 (strain 89.6)": {"target": "HIV-1 gp41 (strain 89.6) (HIV-1 strain 89.6)"}, "gp41 of SHIV-89.6P": {"target": "gp41 of SHIV-89.6P (SHIV-89.6P)"}, "HIV-1 gp41 (strain MN-1)": {"target": "HIV-1 gp41 (strain MN-1) (HIV-1 strain MN-1, UniProt P05877 514-856)", "sequence (P05877 514-856 limits assumed)": "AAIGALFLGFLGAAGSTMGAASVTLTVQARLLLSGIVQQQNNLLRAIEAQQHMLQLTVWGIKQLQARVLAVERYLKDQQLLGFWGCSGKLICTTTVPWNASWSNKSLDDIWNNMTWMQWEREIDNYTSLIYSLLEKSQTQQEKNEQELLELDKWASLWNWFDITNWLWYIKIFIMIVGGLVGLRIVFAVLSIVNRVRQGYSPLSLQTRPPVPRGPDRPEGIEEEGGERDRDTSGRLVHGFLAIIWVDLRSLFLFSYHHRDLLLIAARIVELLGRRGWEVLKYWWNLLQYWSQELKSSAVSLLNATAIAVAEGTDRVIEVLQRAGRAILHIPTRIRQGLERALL"}, "[4]": {"target": "HIV-1 gp41 (strain NL4-3) (HIV-1 strain NL4-3)"}},
  "note": "Numbered stars: 1 amine (or outer) side, 2 acyl side, 3 side chain; on linkers, the order of the positions; unused ones are H or OH. Bridge positions count the residues as written; N and C are the ends. Square brackets hold non-standard residues; d marks the D form. Ends that are not written are not given here. I, II: the chains in the order shown. * marks the point of attachment. Cys(Acm) = Cys protected with acetamidomethyl (Acm), CC(=O)NCSC[C@H](N[*:1])C(=O)[*:2]; Biotin = O=C1N[C@H]2[C@H](CS[C@H]2CCCCC(=O)*)N1; Ttds = O=C(CCC(=O)[*:2])NCCCOCCOCCOCCCN[*:1]",
  "data": [
    {"binder": "Ac-CCGGIKKKIEAIEKLLQLTVWGIKQLQARIL-NH2 (not fully specified (bridges); also: homotrimer of three chains, cysteine pairing not given here)", "note": "[(CCI10N17)3]", "values": [
      {"measurement": "IC50, anti-viral assay against HIV-1 HXB2 (FIG. 13)", "setting": "HIV-1 gp41 (strain HXB2) [1]", "result": 24, "unit": "nM"},
      {"measurement": "fold change of IC50 against (CCIZN17)3, anti-viral assay against HIV-1 HXB2 (FIG. 13)", "setting": "HIV-1 gp41 (strain HXB2) [1]", "result": "~150", "unit": "fold"},
      {"measurement": "fold change of IC50 against IZN17, anti-viral assay against HIV-1 HXB2 (FIG. 13)", "setting": "HIV-1 gp41 (strain HXB2) [1]", "result": "~10", "unit": "fold"}
    ]},
    {"binder": "ac-C(Acm)(thioE10N17)3 (bridge I:N-I:4; thioether (positions not given here); not fully specified (bridges); also: trimer, copy numbers of chains not given here) peptide 1: Ac-[Cys(Acm)][Ttds]CCIEEKIEEIEELLQLTVWGIKQLQARIL peptide 2: Ac-GGGIEEKIEEIEELLQLTVWGIKQLQARIL", "values": [
      {"measurement": "IC50, anti-viral activity against HIV-HXB2", "setting": "HIV-1 gp41 (strain HXB2) [2]", "result": 150, "unit": "nM"}
    ]},
    {"binder": "Ac-CCGGIKKEIEAIKKEQEAIKKKIEAIEKLLQLTVWGIKQLQ (not fully specified (bridges); also: homotrimer of three chains, cysteine pairing not given here)", "note": "[(CCIZN13)3]", "values": [
      {"measurement": "IC50, antiviral activity against HIV HXB2 (FIG. 13)", "setting": "HIV-1 gp41 (strain HXB2) [1]", "result": 85.3, "unit": "nM"}
    ]},
    {"binder": "ac-C(Acm)(thioS17N17)3 (N-terminal acetyl (from bromoacetyl) joined by a thioether bond to a Cys of the CC chain; N-terminal acetyl; Cys1 thiol protected with Acm; Ttds linker between Cys1 and Cys2; Cys2 and Cys3 each joined by a thioether bond to the N-terminal acetyl of a GGGS17N17 chain) peptide 1: CCCGGIEKKIEAIEKKIEAIEKLLQLTVWGIKQLQARIL peptide 2: GGGIEKKIEAIEKKIEAIEKLLQLTVWGIKQLQARIL", "values": [
      {"measurement": "IC50, single cell infectivity assay, HIV-1 HXB2", "setting": "HIV-1 gp41 (strain HXB2) [1]", "result": 0.27, "unit": "nM"}
    ]},
    {"binder": "IKKKIEAIEKLLQLTVWGIKQLQARILGGCC (not fully specified (bridges); also: homotrimer of three chains, cysteine pairing not given here)", "note": "[(I10N17CC)3]", "values": [
      {"measurement": "IC50, anti-viral activity against HIV-HXB2", "setting": "HIV-1 gp41 (strain HXB2) [2]", "result": 77.6, "unit": "nM"}
    ]},
    {"binder": "(Biotin-CCIZN23)3 (not fully specified (bridges); also: covalent homotrimer via three interchain disulfides) peptide: Biotin-GCCGGIKKEIEAIKKEQEAIKKKIEAIEKEIEAQQHLLQLTVWGIKQLQARIL", "values": [
      {"measurement": "IC50, single-cycle HIV infectivity assay", "setting": "HIV-1 gp41 (strain HXB2) [3]", "result": 0.316, "unit": "nM"}
    ]},
    {"binder": "Ac-CCGGIKKEIEAIKKEQEAIKKKIEAIEKLLQLTVWGIKALAAAIA-NH2 (not fully specified (bridges); also: homotrimer of three chains, cysteine pairing not given here)", "note": "[(CCIZN17Ala4)3]", "values": [
      {"measurement": "IC50, anti-viral activity against HIV-HXB2", "setting": "HIV-1 gp41 (strain HXB2) [2]", "result": 47, "unit": "nM"}
    ]},
    {"binder": "Biotin-GGIKKEIEAIKKEQEAIKKKIEAIEKEIEAQQHLLQLTVWGIKQLQARIL", "note": "[Biotin-IZN23]", "values": [
      {"measurement": "IC50, single-cycle HIV infectivity assay", "setting": "HIV-1 gp41 (strain HXB2) [3]", "result": 2.17, "unit": "nM"}
    ]},
    {"binder": "Ac-CCGGIKKEIEAIKKEQEAIKKKIEAIEKLLQLTVWGIKQLQARIL-NH2 (not fully specified (bridges); also: homotrimer of three chains, cysteine pairing not given here)", "note": "[(CCIZN17)3]", "values": [
      {"measurement": "IC50, anti-viral assay against HIV-1 HXB2 (FIG. 13)", "setting": "HIV-1 gp41 (strain HXB2) [1]", "result": 0.132, "unit": "nM"},
      {"measurement": "IC50, single-cycle HIV infectivity assay", "setting": "HIV-1 gp41 (strain HXB2) [3]", "result": 0.04, "unit": "nM"},
      {"measurement": "IC50, single-cycle HIV infectivity assay", "setting": "HIV-1 gp41 (strain BaL)", "result": 0.34, "unit": "nM"},
      {"measurement": "IC50, single-cycle HIV infectivity assay", "setting": "HIV-1 gp41 (strain 89.6)", "result": 8, "unit": "nM"},
      {"measurement": "IC50, single-cycle HIV infectivity assay", "setting": "gp41 of SHIV-89.6P", "result": 6.9, "unit": "nM"},
      {"measurement": "IC50, single-cycle HIV infectivity assay", "setting": "HIV-1 gp41 (strain MN-1)", "result": 0.9, "unit": "nM"},
      {"measurement": "IC50, single-cycle HIV infectivity assay", "setting": "[4]", "result": 0.1, "unit": "nM"}
    ]},
    {"binder": "Ac-IKKEIEAIKKEQEAIKKKIEAIEKLLQLTVWGIKQLQARIL-NH2 (also: non-covalent trimeric coiled-coil)", "note": "[IZN17]", "values": [
      {"measurement": "IC50, anti-viral assay against HIV-1 HXB2 (FIG. 13)", "setting": "HIV-1 gp41 (strain HXB2) [1]", "result": 1.68, "unit": "nM"},
      {"measurement": "IC50, single-cycle infectivity assay, HIV-1 HXB2", "setting": "HIV-1 gp41 (strain HXB2) [1]", "result": 0.2, "unit": "nM"},
      {"measurement": "IC50, single-cycle HIV infectivity assay", "setting": "HIV-1 gp41 (strain HXB2) [3]", "result": 1.7, "unit": "nM"},
      {"measurement": "IC50, single-cycle HIV infectivity assay", "setting": "HIV-1 gp41 (strain BaL)", "result": 3.2, "unit": "nM"}
    ]},
    {"binder": "NH2-C(Fm)(thioIZN17)3 (N-terminal acetyl (from bromoacetyl) joined by a thioether bond to a Cys of the CC chain; free N-terminal amine; Cys1 thiol protected with Fm; Ttds linker between Cys1 and Cys2; Cys2 and Cys3 each joined by a thioether bond to the N-terminal acetyl of a GGGIZN17 chain) peptide 1: CCCGGIKKEIEAIKKEQEAIKKKIEAIEKLLQLTVWGIKQLQARIL peptide 2: GGGIKKEIEAIKKEQEAIKKKIEAIEKLLQLTVWGIKQLQARIL", "values": [
      {"measurement": "IC50, single cell infectivity assay, HIV-1 HXB2", "setting": "HIV-1 gp41 (strain HXB2) [1]", "result": 1.1, "unit": "nM"}
    ]},
    {"binder": "ac-C(thioIZN17)3 (N-terminal acetyl (from bromoacetyl) joined by a thioether bond to a Cys of the CC chain; N-terminal acetyl; Cys1 free thiol; Ttds linker between Cys1 and Cys2; Cys2 and Cys3 each joined by a thioether bond to the N-terminal acetyl of a GGGIZN17 chain) peptide 1: CCCGGIKKEIEAIKKEQEAIKKKIEAIEKLLQLTVWGIKQLQARIL peptide 2: GGGIKKEIEAIKKEQEAIKKKIEAIEKLLQLTVWGIKQLQARIL", "values": [
      {"measurement": "IC50, anti-viral activity assay, HIV-HXB2", "setting": "HIV-1 gp41 (strain HXB2) [1]", "result": 0.24, "unit": "nM"}
    ]},
    {"binder": "ac-C(Acm)(thioIZN17)3 (N-terminal acetyl (from bromoacetyl) joined by a thioether bond to a Cys of the CC chain; N-terminal acetyl; Cys1 thiol protected with acetamidomethyl (Acm); Ttds linker between Cys1 and Cys2; Cys2 and Cys3 each joined by a thioether bond to the N-terminal acetyl of a GGGIZN17 chain) peptide 1: CCCGGIKKEIEAIKKEQEAIKKKIEAIEKLLQLTVWGIKQLQARIL peptide 2: GGGIKKEIEAIKKEQEAIKKKIEAIEKLLQLTVWGIKQLQARIL", "values": [
      {"measurement": "IC50, anti-viral activity against HIV-HXB2", "setting": "HIV-1 gp41 (strain HXB2) [2]", "result": 0.24, "unit": "nM"}
    ]},
    {"binder": "Ac-CCGGIEKKIEAIEKKIEAIEKLLQLTVWGIKQLQARIL-NH2 (not fully specified (bridges); also: homotrimer of three chains, cysteine pairing not given here)", "note": "[(CCS17N17)3]", "values": [
      {"measurement": "IC50, anti-viral activity against HIV-HXB2", "setting": "HIV-1 gp41 (strain HXB2) [2]", "result": 0.33, "unit": "nM"}
    ]},
    {"binder": "Ac-IKKEIEAIKKEQEAIKKKIEAIEKLLQLTVWGIKALAAAIA-NH2", "note": "[IZN17Ala4]", "values": [
      {"measurement": "IC50, single-cycle infectivity assay, HIV-1 HXB2 (FIG. 12A)", "setting": "HIV-1 gp41 (strain HXB2) [1]", "result": 25, "unit": "nM"},
      {"measurement": "IC50, anti-viral activity against HIV-HXB2", "setting": "HIV-1 gp41 (strain HXB2) [2]", "result": 25.3, "unit": "nM"}
    ]}
  ]
}
